Results: PMC11342335 (2024)

Target: human sortilin (R&D Systems, 3154-ST) (human, UniProt Q99523 78-755)
Assay: SPR

Chain of human sortilin (R&D Systems, 3154-ST) (Q99523 78-755): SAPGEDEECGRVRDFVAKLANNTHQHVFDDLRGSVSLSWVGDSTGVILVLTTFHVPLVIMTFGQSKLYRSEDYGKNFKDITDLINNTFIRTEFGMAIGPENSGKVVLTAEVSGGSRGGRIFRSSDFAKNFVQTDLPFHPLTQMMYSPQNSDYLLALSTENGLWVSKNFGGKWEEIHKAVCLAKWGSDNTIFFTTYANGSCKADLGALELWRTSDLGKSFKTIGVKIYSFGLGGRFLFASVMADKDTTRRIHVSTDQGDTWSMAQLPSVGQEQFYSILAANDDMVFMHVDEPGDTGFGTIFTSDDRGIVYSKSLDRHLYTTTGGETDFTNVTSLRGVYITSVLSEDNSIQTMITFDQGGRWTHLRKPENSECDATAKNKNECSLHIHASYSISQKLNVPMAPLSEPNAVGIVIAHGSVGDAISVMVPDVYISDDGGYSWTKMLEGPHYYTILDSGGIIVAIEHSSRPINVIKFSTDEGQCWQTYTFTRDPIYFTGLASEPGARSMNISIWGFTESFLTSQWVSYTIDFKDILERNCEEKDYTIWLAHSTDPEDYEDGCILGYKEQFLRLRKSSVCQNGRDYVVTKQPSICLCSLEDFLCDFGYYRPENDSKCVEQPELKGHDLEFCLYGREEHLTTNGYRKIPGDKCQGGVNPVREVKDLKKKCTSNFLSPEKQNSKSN

For LRREAPRWDAPLRDPGLRQLL [ABD-PGRNC21* (His6-ABD035-PGRNC21*)], the Kd was 26 nM.
